Assay [1] concerns the target T1, mouse B7-H4 expressed on cells (mouse, UniProt Q7TSP5 25-257).
T1 construct: also called cellular mB7-H4; mB7-H4/CT26
T1 sequence: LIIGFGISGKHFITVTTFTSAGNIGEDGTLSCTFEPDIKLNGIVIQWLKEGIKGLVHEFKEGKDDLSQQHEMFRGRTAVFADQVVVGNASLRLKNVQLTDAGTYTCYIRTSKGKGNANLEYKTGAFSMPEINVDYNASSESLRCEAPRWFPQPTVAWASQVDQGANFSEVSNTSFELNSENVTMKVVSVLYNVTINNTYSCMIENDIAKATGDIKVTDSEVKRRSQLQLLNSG
Description: flow cytometry, mB7-H4/CT26 cells. The gist of the method:
(§1)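 Antibody or fusion protein dilution series applied to 1×10⁶ cells/ml in ice-cold FACS buffer, 1 h at 4 °C; cells washed thrice, labelled 30 min at 4 °C in darkness with 1:200 secondary antibody, washed, resuspended in PBS and analysed by flow cytometry.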
In general terms: Flow cytometry measures light scatter and fluorescence of single cells or particles in a stream.

Assay [2] deals with T2, mB7-H4 (soluble mouse B7-H4, construct not named) (mouse, UniProt Q7TSP5 25-257, limits assumed).
T2 sequence: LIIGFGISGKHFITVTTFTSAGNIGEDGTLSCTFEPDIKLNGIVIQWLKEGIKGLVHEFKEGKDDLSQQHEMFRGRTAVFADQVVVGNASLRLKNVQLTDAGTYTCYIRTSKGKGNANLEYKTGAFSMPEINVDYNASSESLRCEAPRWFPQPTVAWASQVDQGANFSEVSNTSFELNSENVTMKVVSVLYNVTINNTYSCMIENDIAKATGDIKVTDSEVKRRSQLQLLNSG
Briefly: ELISA, mB7-H4. The procedure, abridged:
(§2)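 Following overnight 4° C coating with about 1-2 μg/ml B7-H4-Fc or his-tagged protein and 3% PBS+milk blocking, antibody dilution series bind 1-1.5 h at RT. HRP anti-hFab plus TMB yields OD450, from which EC50 is derived.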
On the technique in general: In an ELISA, binding on a coated surface is turned into a signal by an enzyme label.

The target of assay [3] is T3, human B7-H4 expressed on cells (human, UniProt Q7Z7D3 25-282).
T3 construct: Transfected CHO cells or tumor cell lines that carry hB7-H4; also called cellular hB7-H4
T3 sequence: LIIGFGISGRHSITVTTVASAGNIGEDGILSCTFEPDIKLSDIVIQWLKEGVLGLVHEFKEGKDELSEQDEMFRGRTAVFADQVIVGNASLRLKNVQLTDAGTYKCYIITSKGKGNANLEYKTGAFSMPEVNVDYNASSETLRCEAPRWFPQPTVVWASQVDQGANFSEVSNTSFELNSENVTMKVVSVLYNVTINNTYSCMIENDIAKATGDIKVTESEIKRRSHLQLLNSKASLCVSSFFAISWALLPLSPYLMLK
Description: flow cytometry, SK-BR-3 cells. The procedure, abridged: as §1

Assay [4] has as its target T4, hB7-H4 (soluble human B7-H4, construct not named) (human, UniProt Q7Z7D3 25-259, limits assumed).
T4 construct: also called soluble hB7-H4
T4 sequence: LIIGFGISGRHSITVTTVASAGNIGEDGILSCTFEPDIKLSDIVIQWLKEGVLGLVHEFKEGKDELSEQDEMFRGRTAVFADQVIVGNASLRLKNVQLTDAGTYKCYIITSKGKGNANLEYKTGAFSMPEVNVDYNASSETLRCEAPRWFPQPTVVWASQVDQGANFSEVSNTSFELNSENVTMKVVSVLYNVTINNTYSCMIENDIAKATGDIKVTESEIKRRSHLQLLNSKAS
Briefly: ELISA, hB7-H4. The procedure, abridged: as §2

Assay [5] concerns the target T5, IgC domain of mouse B7-H4-Fc (mouse; human).
T5 construct: also called mB7-H4 IgC domain
Description: ELISA, coated mB7-H4 IgC domain. As to the method:
(§3) About 1-2 μg/ml of human or mouse B7-H4-Fc (or his-tagged) was immobilized on ELISA plates (Immuno 2HB, Thermo scientific, cat #3455) at 4° C. overnight. After blocking the plates with 3% PBS+milk, serial diluted antibodies were added to the blocked plates and incubated at RT for 1-1.5 h. After washing the plates with PBS-T (0.05%), horse radish peroxidase (HRP)-conjugated antibody targeting the hFab was added to the plate. Signals were developed by adding 3,3′,5,5′-Tetramethylbenzidine (TMB (followed 1N of H₂SO₄ to stop the reaction. The OD at 450 nm was read by ELISA plate reader (Infinite M1000 from TECAN). GraphPad from Prism was used to plot OD450 vs. antibody concentration curve and to calculate the EC50 values.

Assay [6] has as its target T6, human B7-H4-Fc (human).
T6 construct: also called hB7-H4-Fc; hB7-H4 Fc
Description: SPR (Biacore). Background: In SPR one partner is held on a chip, and binding of the other changes the refractive index at the surface.

For assay [7], the target named is T7, IgV domain of mouse B7-H4-Fc (mouse; human).
T7 construct: also called mB7-H4 IgV domain
T7 sequence (chain, as listed by the source): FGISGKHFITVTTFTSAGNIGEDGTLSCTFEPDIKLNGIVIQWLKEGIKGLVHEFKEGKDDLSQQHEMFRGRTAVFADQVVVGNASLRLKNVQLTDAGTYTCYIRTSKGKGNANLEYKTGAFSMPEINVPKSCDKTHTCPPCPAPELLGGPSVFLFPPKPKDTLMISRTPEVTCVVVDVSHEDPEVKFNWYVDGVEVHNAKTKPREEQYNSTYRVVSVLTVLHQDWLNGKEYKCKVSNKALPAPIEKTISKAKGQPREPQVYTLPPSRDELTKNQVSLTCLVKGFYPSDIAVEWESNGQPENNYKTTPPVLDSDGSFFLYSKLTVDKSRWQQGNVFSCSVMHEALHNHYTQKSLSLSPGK
Description: ELISA, coated mB7-H4 IgV domain.

Assay [8] has as its target T8, mouse B7-H4-Fc (mouse; human).
T8 construct: also called mB7-H4-Fc; mB7-H4-hFc
Description: SPR (Biacore).

The target of assay [9] is T9, IgC domain of human B7-H4-Fc (human).
T9 construct: also called hB7-H4 IgC domain
T9 sequence (chain, as listed by the source): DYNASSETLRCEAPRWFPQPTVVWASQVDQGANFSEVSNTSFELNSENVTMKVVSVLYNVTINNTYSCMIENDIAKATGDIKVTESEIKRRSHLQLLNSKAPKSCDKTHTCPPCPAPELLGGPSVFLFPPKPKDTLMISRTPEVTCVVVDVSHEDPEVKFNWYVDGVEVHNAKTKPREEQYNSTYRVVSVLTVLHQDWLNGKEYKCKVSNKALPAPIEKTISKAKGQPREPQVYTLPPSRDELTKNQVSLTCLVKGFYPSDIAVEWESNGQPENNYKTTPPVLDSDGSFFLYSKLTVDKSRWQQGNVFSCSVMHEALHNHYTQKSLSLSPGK
Description: ELISA, coated hB7-H4 IgC domain. As to the method: as §3

Assay [10] addresses T10, IgV domain of human B7-H4-Fc (human).
T10 construct: also called hB7-H4 IgV domain
Description: ELISA, coated hB7-H4 IgV domain.

Assay [11] concerns the target T4, hB7-H4 (soluble human B7-H4, construct …). Briefly: SPR (Biacore). The gist of the method:
(§4)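 Kinetic constants came from a 1:1 Langmuir fit of binding at 25 °C in HBS-EP, pH 7.4. Analyte (100 nM to 0.1 nM) flowed for 180 s, then dissociated for 1000 or 1200 s, over amine-coupled human B7-H4-Fc, human B7-H4-his or mouse B7-H4-Fc surfaces at 50-100 RU.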

Assay [12] addresses T2, mB7-H4 (soluble mouse B7-H4, construct …). Briefly: SPR (Biacore). The gist of the method:
as §4

The target of assay [13] is T7, IgV domain of mouse B7-H4-Fc. Briefly: ELISA, coated mB7-H4 IgV domain. The gist of the method:
as §2
This is another data set of the same source.

The target of assay [14] is T1, mouse B7-H4 expressed on cells. Description: flow cytometry, CHO cells expressing mB7-H4.
The next assay addresses T11, mouse B7-H4-his (mouse, UniProt Q7TSP5 25-257).
T11 construct: also called mB7-H4-his; mB7-H4-His; not shown: his tag
T11 sequence: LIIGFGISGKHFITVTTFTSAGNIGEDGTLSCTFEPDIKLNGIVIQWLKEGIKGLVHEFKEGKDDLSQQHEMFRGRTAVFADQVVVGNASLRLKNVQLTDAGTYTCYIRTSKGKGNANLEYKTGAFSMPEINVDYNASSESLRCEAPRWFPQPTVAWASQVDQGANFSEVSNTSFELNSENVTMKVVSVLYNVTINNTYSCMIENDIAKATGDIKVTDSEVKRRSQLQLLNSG
Description: SPR (Biacore).

For a further assay, the target named is T12, human B7-H4-his (human, UniProt Q7Z7D3 25-259).
T12 construct: also called hB7-H4-his; hB7-H4 his; not shown: his tag
T12 sequence: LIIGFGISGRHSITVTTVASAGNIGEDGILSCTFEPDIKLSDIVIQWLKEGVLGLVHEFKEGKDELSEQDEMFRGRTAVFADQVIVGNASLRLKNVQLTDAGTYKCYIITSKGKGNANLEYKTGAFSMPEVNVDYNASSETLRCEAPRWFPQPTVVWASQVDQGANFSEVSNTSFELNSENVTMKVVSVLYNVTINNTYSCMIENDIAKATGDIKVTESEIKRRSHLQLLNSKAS
Description: SPR (Biacore).

For assay [15], the target named is T8, mouse B7-H4-Fc. Description: ELISA, coated mB7-H4-Fc. The gist of the method:
as §2

Assay [16] deals with T2, mB7-H4 (soluble mouse B7-H4, construct …). Briefly: summary of ELISA and flow cytometry.
Assay [17] has as its target T10, IgV domain of human B7-H4-Fc. Description: ELISA, coated hB7-H4 IgV domain. As to the method: as §3
The source holds these as a separate data set.

Assay [18] deals with T6, human B7-H4-Fc. Briefly: ELISA, coated hB7-H4-Fc. As to the method:
as §3

Data on 2 molecules can be found in patent US20230312724A1 (KADMON, published 2023).

T6 sequence (chain, as listed by the source): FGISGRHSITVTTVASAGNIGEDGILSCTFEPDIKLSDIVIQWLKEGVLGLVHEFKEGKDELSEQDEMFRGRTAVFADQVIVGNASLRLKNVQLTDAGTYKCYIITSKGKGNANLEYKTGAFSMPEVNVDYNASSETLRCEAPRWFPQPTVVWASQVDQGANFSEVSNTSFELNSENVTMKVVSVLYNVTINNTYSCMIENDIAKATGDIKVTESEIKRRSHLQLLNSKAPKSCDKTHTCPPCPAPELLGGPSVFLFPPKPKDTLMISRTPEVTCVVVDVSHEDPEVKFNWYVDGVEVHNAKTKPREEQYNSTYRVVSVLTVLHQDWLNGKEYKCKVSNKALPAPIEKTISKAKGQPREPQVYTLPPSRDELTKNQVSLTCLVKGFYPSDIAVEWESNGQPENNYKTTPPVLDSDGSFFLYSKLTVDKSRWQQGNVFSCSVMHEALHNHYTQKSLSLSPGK
T8 sequence (chain, as listed by the source): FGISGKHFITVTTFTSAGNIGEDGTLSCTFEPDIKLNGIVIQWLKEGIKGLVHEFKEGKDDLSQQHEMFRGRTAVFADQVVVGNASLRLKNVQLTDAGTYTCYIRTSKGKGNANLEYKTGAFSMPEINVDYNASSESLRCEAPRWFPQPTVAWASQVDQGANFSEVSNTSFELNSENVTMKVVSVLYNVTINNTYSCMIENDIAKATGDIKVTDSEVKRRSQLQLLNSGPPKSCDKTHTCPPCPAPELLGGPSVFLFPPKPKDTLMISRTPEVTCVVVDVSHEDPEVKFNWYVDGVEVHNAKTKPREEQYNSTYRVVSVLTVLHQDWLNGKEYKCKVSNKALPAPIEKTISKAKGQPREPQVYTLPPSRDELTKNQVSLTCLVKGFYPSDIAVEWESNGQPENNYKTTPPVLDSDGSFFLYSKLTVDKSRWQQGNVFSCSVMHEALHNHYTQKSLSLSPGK
T10 sequence (chain, as listed by the source): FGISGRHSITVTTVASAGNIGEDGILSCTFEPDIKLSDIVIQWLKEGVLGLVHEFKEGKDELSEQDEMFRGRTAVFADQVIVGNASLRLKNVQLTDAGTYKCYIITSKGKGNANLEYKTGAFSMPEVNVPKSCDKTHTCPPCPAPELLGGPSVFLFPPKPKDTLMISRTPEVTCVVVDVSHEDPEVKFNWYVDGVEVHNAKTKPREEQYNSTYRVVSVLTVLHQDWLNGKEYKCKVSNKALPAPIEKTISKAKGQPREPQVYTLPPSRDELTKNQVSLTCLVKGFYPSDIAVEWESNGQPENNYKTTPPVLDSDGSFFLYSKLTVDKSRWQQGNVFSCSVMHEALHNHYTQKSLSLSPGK
T5 sequence (chain, as listed by the source): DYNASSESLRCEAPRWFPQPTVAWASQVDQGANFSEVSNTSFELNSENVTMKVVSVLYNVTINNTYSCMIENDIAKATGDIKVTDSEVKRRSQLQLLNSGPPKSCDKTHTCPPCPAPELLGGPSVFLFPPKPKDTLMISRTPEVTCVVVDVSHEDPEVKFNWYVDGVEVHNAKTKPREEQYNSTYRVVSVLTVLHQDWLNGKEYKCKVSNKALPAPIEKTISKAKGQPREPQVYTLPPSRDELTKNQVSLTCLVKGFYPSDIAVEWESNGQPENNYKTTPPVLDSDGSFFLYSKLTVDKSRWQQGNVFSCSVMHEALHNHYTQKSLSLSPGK

B1: 39A11/39A11 (antibody, human IgG1, V domains shown)
VH: EVQLLESGGGLVQPGGSLRLSCAASGFTFSSYGMHWVRQAPGKGLEWVASISSSSGYIYYADSVKGRFTISRDNSKNTLYLQMNSLRAEDTAVYYCARASSGMDVWGQGTTVTVSS
VL: DIQMTQSPSSLSASVGDRVTITCRASQTIRSYLNWYQQKPGKAPKLLIYAASHLQSGVPSRFSGSGSGTDFTLTISSLQPEDFATYYCQQSYTTPYTFGQGTKLEIK
Turning to B1, the EC50 in [1] was 6.73 nM; in assay [2], 0.136 nM; in assay [3], 4.17 nM; in assay [4], 0.08 nM. In addition, the binding result in assay [5] and in assay [9] was “no binding (tested: axis value -8 (labelled log nM))” throughout. Further, the Kd with human B7-H4-Fc [6] is 0.926 nM; with mouse B7-H4-Fc [8] it was 1.53 nM; in assay [11], 1.05 nM; in assay [12], 13 nM. The “EC50 (read off the curve)” value in assay [7] is around 0.2 nM; in [10], around 0.3 nM.

B2: 4B9/4B9 (antibody, human IgG1, V domains shown)
VH: QVQLVQSGAEVKKPGASVKVSCKASGYTFTSYYMHWVRQAPGQGLEWMGWMNPNSGNTGYAQKFQGRVTMTRDTSTSTVYMELSSLRSEDTAVYYCARGQGRYLNYYYMDVWGKGTTVTVSS
VL: DIQMTQSPSSLSASVGDRVTITCRVSQGISNYLAWYQQKPGKAPKLLIYDASSLQSGVPSRFSGSGSGTDFTLTISSLQPEDFATYYCQQSYSTPFTFGPGTKVDIK
With B2, the binding result in [13] is recorded as “no binding (tested: 20 nM)”; in assay [14], “no binding”; with mouse B7-H4-his it was “no binding”; with mouse B7-H4-Fc [15], “no binding (tested: 20 nM)”; in [16], “no binding”; in [17], “no binding (tested: 20 nM)”. The results for the Kd with human B7-H4-his and in the assay with human B7-H4-Fc [6] were 4.13 nM and 2.89 nM, respectively. Moreover, in the assay with human B7-H4-Fc [18], the “EC50 (read off the curve)” value was around 0.07 nM.

What is called EC50 is the concentration needed to bring the measured effect to its halfway point. Lower therefore signals higher potency in that assay. By Kd is commonly meant the constant that tells how readily two partners part at equilibrium. For orientation: EC50 (read off the curve) means the concentration at which the effect is half-maximal. A low value points to an effect from little substance.
